Series [1] deals with the molecule itself. Briefly: crystal structure; hanging drop vapor diffusion at 25 °C; 7% PEG 2000 MME, 2% MPD, 50 mM Tris-HCl pH 6.5; asymmetric part holds three subunits, hexamer by crystallographic symmetry.
Series [2] deals with the molecule itself. Description: dynamic light scattering; pH 1.4, 100 µM protein (monomer), 25 °C.

Several values for one entry are separate records, joined by “and”; a condition that tells them apart may be missing. Equal values may be shown once.

B1: Pseudomonas aeruginosa Hfq Y55W mutant (natural protein)
chain: MSKGHSLQDPYLNTLRKERVPVSIYLVNGIKLQGQIESFDQFVILLKNTVSQMVWKHAISTVVPSRPVRLPSGDQPAEPGNA
notes: also called Y55W (hexamer); Pae Hfq Y55W
Usually stoichiometry N stands for the number of molecules, sites or subunits per partner or assembly. In the case of B1, the “stoichiometry N” value in series [1] is 6; in series [2] it was 3 and 2.

These data come from paper PMC9228748, “The Denaturant- and Mutation-Induced Disassembly of Pseudomonas aeruginosa Hexameric Hfq Y55W Mutant” (Molecules, 2022).
